The values below come from patent publication US7211420B1, “Process for oxidizing terpenes” (ISIS Innovation Limited, priority 1998, dated 2007).

Common to all, as to assay type: biochemical
Data set [1] can be described thus: Oxidation of L-limonene by P450cam mutants, product proportions by GC. To be noted: substrate L-Limonene. Here is the method:
(§1) For simple screening the substrate can be added to culture and the incubation continued. However, due to impurities from the culture media the cells were generally washed twice with 0.5 vol. of buffer P, (KH2PO4 6.4 g, K2HPO4.3H2O 25.8 g, H2O to 4 liters, pH 7.4) and resuspended in 0.25 vol. oxygen saturated buffer P containing 24 mM glucose. Substrate was added to 1 mM and the incubation continued at 30° C. The reaction was allowed to run for 24 hours with periodic additions of substrate and glucose.
(§2) The reaction was analysed by extracting 1 ml of the incubation mixture with 250 μl of ethylacetate. After centrifuging in a microcentrifuge at 13,000 g for 2 minutes, 2 μl of the organic extract was injected onto a 0.25 mm×30 m DB-1 gas chromatography column in a Fisons GC 8000 series gas chromatograph. The samples were carried through the column using helium carrier gas and the compounds present were detected using a flame ionisation detector.

Data set [2] can be described thus: Oxidation of α-pinene by P450cam mutants, product proportions by GC. To be noted: substrate α-Pinene. The procedure:
as §1, §2

Data set [3] is described as follows: Oxidation of valencene by P450cam mutants, product proportions by GC. To be noted: substrate Valencene. Here is the method:
as §1, §2

The mark [4] stands for this setting: single oxygen insertion products only, 30 m DB-1 GC column.

B1: Wild-type: Wild-type P450cam haem monooxygenase from Pseudomonas putida, sequence in Table 7 (protein, UniProt P00183 2-415, looked up)
Camphor 5-monooxygenase: TTETIQSNANLAPLPPHVPEHLVFDFDMYNPSNLSAGVQEAWAVLQESNVPDLVWTRCNGGHWIATRGQLIREAYEDYRHFSSECPFIPREAGEAYDFIPTSMDPPEQRQFRALANQVVGMPVVDKLENRIQELACSLIESLRPQGQCNFTEDYAEPFPIRIFMLLAGLPEEDIPHLKYLTDQMTRPDGSMTFAEAKEALYDYLIPIIEQRRQKPGTDAISIVANGQVNGRPITSDEAKRMCGLLLVGGLDTVVNFLSFSMEFLAKSPEHRQELIERPERIPAACEELLRRFSLVADGRILTSDYEFHGVQLKKGDQILLPQMLSGLDERENACPMHVDFSRQKVSHTTFGHGSHLCLGQHLARREIIVTLKEWLTRIPDFSIAPGAQIQHKSGIVSGVQALPLVWDPATTKAV
B1: the Comments entry in data set [1] is on record as “Very small quantities”. Besides, in data set [1] (setting [4]), the “Approximate proportion of Product at 6.10–6.20 min” value is recorded as 30% and the “Approximate proportion of product Isopiperitenol (6.60–6.70 min)” value is on record as 70%. In addition, in data set [2], the “Approximate proportion of product Pinene oxide” value amounted to 10%, the “Approximate proportion of product Verbenol” value is reported as 30%, the “Approximate proportion of product Verbenone” value worked out at 10% and the “Remaining other products (Comments)” value is recorded as “Remaining 50% other products”. The Comments entry in data set [3] is on record as “Many small peaks”.
